Experimental data from the nanobody polyreactivity screen of Harvey et al. (2022).

Assay: yeast display, Sf9 membrane polyspecificity reagent, FACS + sequencing; frameworks hold sequencing errors
How it was run: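 Nanobodies from a synthetic yeast display library (Saccharomyces cerevisiae BJ5465), induced 36–48 hours with galactose, were stained 1 hour at 4 °C with 10% biotinylated, detergent-solubilized Sf9 membrane reagent, enriched on streptavidin microbeads, then FACS-sorted. Anti-HA (expression) and streptavidin (reagent binding) fluorescence set low and high (top ~1%) gates. Polyreactivity labels come from the gate of origin. Genes were colony-PCR amplified, MiSeq 2 × 250 sequenced and filtered by CDR length.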

Row | Sequence | polyreactivity (PSR sort gate)
1 | QVQLVESGGGLVQAGGSLRLSCAASGFIFKYNAMGWYRQAPGKERELVAAITSSGGSTYYADSVKGRFTISRDNAKNTVYLQMNSLKPEDTAVYYCNRVRDPSYDYWGQGTQVTVSS | high polyreactivity
2 | QVQLVESGGGLVQAGGSLRLSCAASGFIFKYYAMGWYRQAPGKERELVAAISRSGGSTYYADSVKGRFTISRDNAKNTVYLLMNSLKPEDTAVYYCAADSSWVHEYYYWGQGTQVTVSS | high polyreactivity
3 | QVQLVESGGGLVQAGGSLRLSCAASGFIFKYYAMGWYRQAPGKERELVATITRRGGSTYYADSVKGRFTISRDNAKNTVYLQMNSLKPEDTAVYYCNVTPDWNARRPFDYWGQGTKVTVSS | high polyreactivity
4 | QVQLVESGGGLVQAGGSLRLSCAASGFIFLIYAMGWYRQAPGKERELVATIRYSGGRTYYADSVKGRFTISRDNAKNTVYLQMNSLKPEDTAVYYCAARSVWFSGQGRMNYWGQGTQVTVSS | high polyreactivity
5 | QVQLVESGGGLVQAGGSLRLSCAASGFIFLRYAMGWYRQAPGKERELVAAISSSGGRTTYADSVKGRFTISRDNAKNTLYLQMNSLKPEDTAVYYCNADLWPGNHDGYWGQGTQVTVSS | low polyreactivity
6 | QVQLVESGGGLVQAGGSLRLSCAASGFIFLRYGMGWYRPAPGKERELVASIDSTGGSTYADSVKGRFTISRDNAKNTVYLQMNSLKPEDTAVDYCAAAYYIVSERDYWGQGTQVTVSS | low polyreactivity
7 | QVQLVESGGGLVQAGGSLRLSCAASGFIFLSYAKGWYRQAPGKERELVATITWSGGRTYYADSVKGRFTISRDNAKNTVYLQMNSLKPEDTAVYYCAKVNTYYNIYVTFDYWGQGTQVTVSS | low polyreactivity
8 | QVQLVESGGGLVQAGGSLRLSCAASGFIFLYYAMGWYRQAPGKERELVAVITRGGRTYYADSVKGRFTISRDNAKNTVYLQMNSLKPEDTAVYYCAAKAYSYFARIGFDYWGQGTQVTVSS | high polyreactivity
9 | QVQLVESGGGLVQAGGSLRLSCAASGFIFLYYAMGWYRQAPGKERELVPYISRGADTKYADSVKGRFTISRDNAKNTVYLQMNSLKPEDTAVYYCATDITTFWFPYPGVELGYWGQGTQVTVAS | low polyreactivity
10 | QVQLVESGGGLVQAGGSLRLSCAASGFIFNDYAMGWYRQAPGKERELVAAISRSGGSTYYADSVKGRFTISRDNAKNTVYLQMNSLKAEDTAVYYCAADGLSGYRYYYWGQGTQVTVSS | high polyreactivity
11 | QVQLVESGGGLVQAGGSLRLSCAASGFIFNLYAMGWYRQAPGKERELVAAISSGGGTSYADSVKGRFTISRDNAKNTDYLQMNSLKPEDTAVYYCAKRSGTYPFNFRFDYWGQGTQVTVSS | high polyreactivity
12 | QVQLVESGGGLVQAGGSLRLSCAASGFIFNYYVMGGYRQAPGKERELVATISWRGGRTYYADSVKGRFTISRDNAKNTVYLQMNSLKPEDTAVYYCAADSFYYRPEYDYWGQGTQVTVSS | low polyreactivity
13 | QVQLVESGGGLVQAGGSLRLSCAASGFIFPANAMGWSRQAPGKEREFVAAISRSGGTTYYADSVKGRFTISRDHAKNTVYLQMNSLKPEDTAVYYCAARYAIGPGYDYWGQGTQVTVSS | high polyreactivity
14 | QVQLVESGGGLVQAGGSLRLSCAASGFIFPAYVMGWYRQAPGKERELVAAISRRGGSTYYADSVKGRFTISRDNAKNTVYLQMNRLKPEDTSVYYCAAVFKAGSAYDYWGQGTQVTVSS | high polyreactivity
15 | QVQLVESGGGLVQAGGSLRLSCAASGFIFPGYAMGWYRQAPGKERELVAAITRSGGSTYYADSVKGRFTISRDNAKNTVYLQMNSLKPEDTAVYYCAAYVSGYRWGYDYWGQGTQVTVSS | high polyreactivity
16 | QVQLVESGGGLVQAGGSLRLSCAASGFIFPGYTMGWYRQAPGKERELVAAISRGSSTYYADSVKRRFTISRDNAKNSVYLQMNSLKPEDTAVYYCAADYSYIYGFDYWGQGTQVTVSS | low polyreactivity
17 | QVQLVESGGGLVQAGGSLRLSCAASGFIFPHNTMGWYRQAPGKERELVAAISSGGSTNYADSVKGRFTISRDNAKNTVYLQMNSLKPEDTAVYYCNKRVRYHSGFGYWGQGTQVTVSS | low polyreactivity
18 | QVQLVESGGGLVQAGGSLRLSCAASGFIFPLYAMGWYRQAPGKERELVAAITWRGDTTSYADSVKGRFTISRDNAKNTVYLQKNSLKPEDTAVDYCAAVRYPSGYDYWGQGTQVTVSS | high polyreactivity
19 | QVQLVESGGGLVQAGGSLRLSCAASGFIFPLYAMGWYRQAPGKERELVAAITWRGDTTSYADSVKGRFTISRDNAKNTVYLQMNSLKPEDTAVYYCAAVRYPSGYDYWGQGTQVTVSS | high polyreactivity
20 | QVQLVESGGGLVQAGGSLRLSCAASGFIFPPYAMGWYRQAPGKERELVAAIRISGGSTYYADSVKGRFTISRDNAKNTVYLQMNSLKPEDTAVYYCAARYVSSTPAYAYYYWGQGTQVTVSS | high polyreactivity
21 | QVQLVESGGGLVQAGGSLRLSCAASGFIFPWYAMGWYRQAPGKERELVAAISESGGGTYYADSVKGRFTISRDYAKNTVYLQMNSLKPEDTAVYYCNKAPRYPYGGYDYWGQGTQVTVSS | low polyreactivity

Row | Sequence | polyreactivity (PSR sort gate)
22 | QVQLVESGGGLVQAGGSLRLSCAASGFIFPWYAMGWYRQAPGKERELVAIISWDTGSTYYADSVKGRFTISRDNAKNTVYLQMNSLKPEDTAVYYCAAQQPYAGLYYWGQGTQVTVSS | low polyreactivity
23 | QVQLVESGGGLVQAGGSLRLSCAASGFIFPYDAMGWYSQAPGNERELVAAITSSGGRTYYADSVQGRFTISRDNAKNTVYFQMNSLKPEDTAVYYCAARGAPPAYGYWGQGTQVTVSS | high polyreactivity
24 | QVQLVESGGGLVQAGGSLRLSCAASGFIFPYNEMGWYRPAPGKERELGAAITSGSNTYYADSVKGRFTISRDNAKNTVYLQLNSLKPEDTAFYYCAARRRIYRSMGYWGQGSQVTVSS | low polyreactivity
25 | QVQLVESGGGLVQAGGSLRLSCAASGFIFPYNTMGWYRQAPGTERELVAAIDSGGSTNYADSVKGRFTISRDNAKNTVDLQMNSLKPEDTAVYYCAADDPGSWWVGLLLTGVDDDYWGQGTQVTVSS | low polyreactivity
26 | QVQLVESGGGLVQAGGSLRLSCAASGFIFPYYARGWYRQAPGKERELVAGITGADSTYYADSVKGRFTISRDNAKNTVYLQMNSLKPEDTAVYYCARKRYSLSRTYNYGYWGQGTQVTVSS | high polyreactivity
27 | QVQLVESGGGLVQAGGSLRLSCAASGFIFQANAMGWYRQAPGKETELDAAIDDGDTTYADSVKGRFTISRDNAKNTVYLQMNSLKPEDTAGYYCATRRNRSYDYWGQGTQVTVSS | low polyreactivity
28 | QVQLVESGGGLVQAGGSLRLSCAASGFIFQANPMGWYRPAPGKERELVAAIDDGDSTYADSVKGRFTISRDNAKNTVYLQMNSLKPEDTAVYYCATRRKRSYDYWGHGTQVTVSS | low polyreactivity
29 | QVQLVESGGGLVQAGGSLRLSCAASGFIFQDYALGWYRQAPGKERELVAAISRSTGSTYYADSVKGRFTISRDNPKNTVYLQMNSLKPEDTAVYYCAKPRSWGYNWGQGTQVTVSS | high polyreactivity
30 | QVQLVESGGGLVQAGGSLRLSCAASGFIFQKYAMGWYRQAPGKERELVAAIRYDGGSTYYADSVKGRFTISRDNAKNTVYLQMNSLKPDDTAVYYCAAYGPRLLIYPPYRYNYWGQGTQVTVSS | high polyreactivity
31 | QVQLVESGGGLVQAGGSLRLSCAASGFIFQKYAMGWYRQAPGKERELVAAIRYDGGSTYYADSVKGRFTISRDNAKNTVYLQMNSLKPEDTAVYYCAAYGPRFLIYPPYRYNYWGQGTQVTVSS | high polyreactivity
32 | QVQLVESGGGLVQAGGSLRLSCAASGFIFQPNAMGWYRQAPGKERELVAVITWSGGSTYYADSVKGRFTISRDNAKNTVYLQMNSLKPEDTAVYYCAVDGAYDQKPTDLKGYYYWGQGTQVTVSS | low polyreactivity
33 | QVQLVESGGGLVQAGGSLRLSCAASGFIFQPYAMGWYRQAPRKERELVAAITSRGGRTYYADSVKGRFTISRDNAKNTVYLQMNSLKPEDTAVYYCNGDIYASEYYYWGQGTQVTVSS | low polyreactivity
34 | QVQLVESGGGLVQAGGSLRLSCAASGFIFQRYAMGCYRQAPGKERELVAAISKGGGNTYYADSVKGRFTISRDNAKKTVYLQMNSLKPEDTAVYYCNAVPRPDHDYWGQGTQVTVSS | high polyreactivity
35 | QVQLVESGGGLVQAGGSLRLSCAASGFIFQRYAMGWYRQAPGKERELVAAITKSGGSTYYADSVKGRYTISRDNAKNTVYLQMNSLKPEDTAVYYCNAYRYGSYRPHQEDYDYWGQGTQVTVSS | high polyreactivity
36 | QVQLVESGGGLVQAGGSLRLSCAASGFIFQTNVMGWYRQAPGKERELVAAISSGDSTYYADSVKGRFTISRDNAKNTVYLQMNSLKPEDTAVYYCAADVLGTTTTVGGFNYWGQGTQVTVSS | low polyreactivity
37 | QVQLVESGGGLVQAGGSLRLSCAASGFIFQYFAMGWYRQAPGKERELVAGITSGVRPYYADSLKGRFTISRDNAKNTVYLQMNSLKPEDTAVYYCARLDSAAEPRQYDYWGQGTQVTVSS | high polyreactivity
38 | QVQLVESGGGLVQAGGSLRLSCAASGFIFQYYAMGWYRQAPGKERELVAAIRISGGSTYYADSVKGRFTSSRDNAKNTVYLQMNSLKPEDTAVYYCAARQIITKFYTSNGVSSYYWGQGTQVTVSS | high polyreactivity
39 | QVQLVESGGGLVQAGGSLRLSCAASGFIFRAYTMGWYRQAPGKERELVAGITSGGSTYYADSVKGRFTISRDNAKNTVYLQMNSLKPDDTAVYYCATYYRRWTPIPYEYWGQGTQVTVSS | high polyreactivity
40 | QVQLVESGGGLVQAGGSLRLSCAASGFIFRDNAKGWYRQAPGKERELVAAISSGGTTKYADSVKGRFTISRDNAKNTVYLQMNSLKPEDTAVYYCAKGYAARIWRIYSRLYYWGQGTQVTVSS | high polyreactivity
41 | QVQLVESGGGLVQAGGSLRLSCAASGFIFRDNAMGWYRQAPGKERELVAAISKSGGRTYYADSVKGRFTISRDNAKNTVYLQMNSLKPEDTAVYYCAKASRYWSLYYWGQGTQVTVSS | high polyreactivity
